Test results published in patent US20170173105A1, “AUTOASSEMBLING PEPTIDES FOR THE TREATMENT OF PULMONARY LEAKAGE” (3-D MATRIX, LTD., priority 2014, published 2017).

Assay: Rheological measurements of RADA16 mixed with salts (stiffness, reversibility, gelation kinetics)
Assay type: physicochemical
Conditions: for gelation kinetics by ion: 0.5% RADA16; for storage modulus: (RADA)4 about 0.5 w/v percent
Description: In a rheological comparison of 2.5% RADA16 and 2.5% RADA16+NaCl, KCl, and CaCl2, solutions of 0.5% RADA16 mixed with 0.005, 0.05, 0.125, 0.25, 0.5, and 1 M NaCl, KCl, and CaCl2 were prepared. The anion, chloride (Cl—), was kept the same to observe the effect of the cations, sodium (Na+), potassium (K+), and calcium (Ca2+). FIG. 21 provides a basic understanding of how varying the cations of a salt solution effects the viscoelastic properties and the stiffness of self-assembling peptides. […] This should be because Ca has […] higher ionic strength than Na and K at the same molar concentrations. Therefore, influence of salts on the peptide solution is more related to their ionic strength rather than their molar concentration, as shown in FIGS. 17-18 and Table 2a-c. In some embodiments, there is a correlation between the properties of the peptide solutions with salts based on the concentration of the salts.
Rheological measurements of stiffness of 2.5% RADA16 and 2.5% RADA16+0.25 M CaCl2 was evaluated.
Rheological measurements of reversibility of 0.5% RADA16 solution with +0.125, 0.25, and 0.5 M CaCl2 were evaluated. Solutions of 0.5% RADA16 mixed with 0.125, 0.25, and 0.5 M CaCl2 were prepared. The structure of the self-assembled peptide solution were disrupted thoroughly by application of mechanical stress through vortexing and sonication. The mixtures were placed at room temperature for 48 hours to allow self-assembly to take place. […] FIG. 23a presents raw rheological data of the control peptide solution with salts and the perturbed peptide solutions with salts while FIG. 23b provides a comparison of stiffness of the control peptide solutions and the perturbed peptide solutions.
Rheological measurements of gelation kinetics of 0.5% RADA16+NaCl, KCl, and CaCl2 were evaluated. A solution of 0.5% RADA16 was prepared and gelation kinetics were observed by treatment with several cations (e.g. Na, […], K) and anions (e.g. Cl, CO3, PO4, SO4). It was determined how long it will take for the peptide mixtures to gel and how to control that gelation time by varying the cation/anion type and concentration. […] In vivo and in vitro qualitative experiments and the resulting observations were supportive of these conclusions.
Due to the success of topically added solution of NaCl gently massaged into 2.5% RADA16 increasing the burst pressure of 2.5% RADA16, other salt based solutions were completely mixed with RADA16 and their mechanical properties were measured. […] The results can be seen in FIG. 29 with respect to the storage modulus (i.e. mechanical strength) of 0.5% PuraMatrix (RADA16) mixed with NaCl, KCl, or CaCl2 at varying concentrations.

## Arg-Ala-Asp-Ala-Arg-Ala-Asp-Ala-Arg-Ala-Asp-Ala-Arg-Ala-Asp-Ala [PuraMatrix ®]
0.5% PuraMatrix (RADA16) mixed with salts at varying concentrations
  mechanical properties (storage modulus) with calcium chloride compared with sodium chloride or potassium chloride: greater mechanical properties
Treatment with chlorine
  gelation kinetics by ion: quickest gelation
Treatment with sulfate
  gelation kinetics by ion: slowest gelation
0.5% RADA16 with CaCl2 within the optimal salt concentration range, vortexing and sonication, 48 hours room temperature
  reversibility after perturbation: remained reversible
2.5% RADA16 vs 2.5% RADA16 with CaCl2 (0.25 M / 0.125 M printed)
  stiffness with added CaCl2 compared with peptide alone: noticeable increase in stiffness
Calcium chloride about 0.125 M
  storage modulus: about 25 Pa
Calcium chloride about 0.250 M
  storage modulus: about 44 Pa
Calcium chloride about 0.500 M
  storage modulus: about 52 Pa
RADA16 mixed with NaCl, KCl, CaCl2 at the same molar concentrations (0.005-1 M)
  enhancement of stiffness by cations: Ca provided the best enhancement of stiffness
